From the supplement of paper PMC12667976
± gives the standard error.

B1: library; numbered along this chain (parent)
chain: MATDAALRRLLRLHRTEIAVAVDSAFPLLHALADHDVVPEDKFQETLHLKEKEGCPQAFHALLSWLLTQDSTAILDFWRVLFKDYNLERYGRLQPILDSFPKDVDLSQPRKGRKPPAVPKALVPPPRLPTKRKASEEARAAAPAALTPRGTASPGSQLKAKPPKKPESSAEQQRLPLGNGIQTMSASVQRAVAMSSGDVPGARGAVEGILIQQVFESGGSKKCIQVGGEFYTPSKFEDSGSGKNKARSSSGPKPLVRAKGAQGAAPGGGEARLGQQGSVPAPLALPSDPQLHQKNEDECAVCRDGGELICCDGCPRAFHLACLSPPLREIPSGTWRCSSCLQATVQEVQPRAEEPRPQEPPVETPLPPGLRSAGEEVRGPPGEPLAGMDTTLVYKHLPAPPSAAPLPGLDSSALHPLLCVGPEGQQNLAPGARCGVCGDGTDVLRCTHCAAAFHWRCHFPAGTSRPGTGLRCRSCSGDVTPAPVEGVLAPSPARLAPGPAKDDTASHEPALHRDDLESLLSEHTFDGILQWAIQSMARPAAPFPS

Variants of: B1
Assay: AIRE transcriptional activation functional score (insulin promoter-GFP; nonsense median 0, synonymous median 1) (normalised score); higher = higher AIRE activity (more reporter activation)
Conditions: with insulin promoter-GFP reporter in HEK293
In short: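 Functional scores come from comparing select with non-select enrichment of each variant and subtracting wild type. Codon-optimized AIRE NNN-codon libraries across three regions were integrated via Bxb1 recombinase into HEK293 landing-pad cells with an insulin core promoter-GFP reporter, and integrants sorted at day 7 were expanded 7 days before top 10% GFP and unselected populations were tile-sequenced. Variants needed 10 counts per million in non-select, and values were rescaled to nonsense median 0 and synonymous median 1 before averaging over biological replicates.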

Variant | AIRE transcriptional activation functional score
G269I | 1.06 ± 0.24
V199R | 0.735 ± 0.3
F77L | -0.0762 ± 0.36
F77K | 0.21 ± 0.52
A281M | 0.425 ± 0.077
A281K | 1.67 ± 0.12
L320W | 0.685 ± 0.1
A404K | 1.05 ± 0.12
A404M | 0.918 ± 0.11
E45H | -0.452 ± 0.067
N179H | 1.97 ± 0.35
G382C | 0.802 ± 0.23
C437S | 0.389 ± 0.13
P361A | 1.01 ± 0.21
P361L | 1.07 ± 0.17
P361N | 0.778 ± 0.12
L308A | 1.06 ± 0.062
S99E | 0.0893 ± 0.067
S99R | 0.357 ± 0.79
L66N | -0.299 ± 0.66
S135N | 0.753 ± 0.095
S135L | 1.04 ± 0.4
C311P | 1.34 ± 0.12
F459V | 0.585 ± 0.15

Variant | AIRE transcriptional activation functional score
Q262W | 1.26 ± 0.043
L529T | 0.261 ± 0.35
P119I | 1.52 ± 0.17
P266Y | 1.06 ± 0.22
P266A | 1.01 ± 0.23
A403S | 0.725 ± 0.4
A403E | 1.14 ± 0.42
A403C | 0.942 ± 0.27
A403K | 1.06 ± 0.21
E270S | 0.795 ± 0.13
E270H | 1.56 ± 0.082
P430Q | 1.01 ± 0.36
A191T | 1.27 ± 0.26
A191S | 1.03 ± 0.35
G438Q | 1.23 ± 0.14
K120W | 1.43 ± 0.041
A500T | 1.12 ± 0.064
P200A | 0.713 ± 0.27
L495Y | 1.35 ± 0.12
L495C | 0.97 ± 0.42
R513S | 0.587 ± 0.3
P483V | 1.03 ± 0.074
G54Y | 0.671 ± 0.86
V37D | 0.512 ± 0.35

Variant | AIRE transcriptional activation functional score
V37E | -0.336 ± 0.2
K245L | 0.453 ± 0.31
L47S | 0.462 ± 0.4
A246L | 1 ± 0.36
R110A | 1.41 ± 0.049
Q534S | 0.372 ± 0.079
P162L | 1.04 ± 0.9
A386F | 1.74 ± 0.057
A386D | 0.793 ± 0.33
D34F | 0.247 ± 0.14
A145D | 0.593 ± 0.25
A145N | 0.349 ± 0.41
C55H | 0.145 ± 0.14
C55S | -0.196 ± 0.59
C449G | 0.257 ± 0.22
E88S | 0.402 ± 0.96
A61E | 0.619 ± 0.68
I528P | 0.0858 ± 0.066
H30C | 0.429 ± 0.26
V118Q | 0.675 ± 0.51
P326L | 1.1 ± 0.25
P326C | 1.19 ± 0.15
D84I | -0.4 ± 0.27
G498C | 1.23 ± 0.42

Variant | AIRE transcriptional activation functional score
E329K | 0.00515 ± 0.43
V256M | 0.911 ± 0.082
R336W | 0.655 ± 0.03
K235N | 0.479 ± 0.43
Q157M | 0.398 ± 0.14
Q157R | 0.62 ± 0.58
Q157N | 0.858 ± 0.49
R203Q | 1.13 ± 0.046
A160D | 0.974 ± 0.075
P416L | 0.688 ± 0.27
P416S | 1.09 ± 0.21
C302S | 0.665 ± 0.21
P115D | 0.0469 ± 0.41
H319P | 1.4 ± 0.12
Q426F | 1.34 ± 0.04
T151Y | 1.44 ± 0.23
P116V | 0.906 ± 0.43
L128Y | 1.41 ± 0.52
L128W | 1.39 ± 0.091
L128F | 1.43 ± 0.27
D98E | 0.0399 ± 0.17
I224R | 0.498 ± 0.24
A317S | 0.689 ± 0.22
D23H | 1.33 ± 0.035

Variant | AIRE transcriptional activation functional score
V123F | 1.33 ± 0.095
V123M | 1.72 ± 0.061
V123A | 0.886 ± 0.47
N295A | 0.906 ± 0.33
T364V | 0.952 ± 0.28
Q425S | 1.06 ± 0.28
G369W | 0.914 ± 0.18
D36Y | 0.501 ± 0.13
D36W | 0.641 ± 0.048
L409Y | 0.962 ± 0.075
I96Y | 0.139 ± 0.17
I96V | 1.14 ± 0.26
K222I | 0.0162 ± 0.14
R149I | 0.113 ± 0.67
V206N | 0.529 ± 0.24
V206Y | 0.936 ± 0.25
V206I | 1.26 ± 0.28
E216V | 0.252 ± 0.2
H292M | 1.7 ± 0.18
H292E | -0.172 ± 0.071
S249R | -0.21 ± 0.29
S249A | 1.07 ± 0.25
A144Q | 0.126 ± 0.22
L32G | -0.111 ± 0.79

Variant | AIRE transcriptional activation functional score
A321K | 1.09 ± 0.13
R328Y | 1.34 ± 0.16
P56S | 0.484 ± 0.56
W65M | -0.0554 ± 0.18
T504W | 1.23 ± 0.072
S241P | 1.31 ± 0.14
S241W | 0.868 ± 0.021
S464W | -0.451 ± 0.18
E363N | 1.09 ± 0.17
P95E | 0.792 ± 0.26
L392N | 0.909 ± 0.1
S217D | 1.57 ± 0.053
K501V | 0.712 ± 0.39
S248E | 0.474 ± 0.14
E40L | 0.272 ± 0.29
R473M | 0.947 ± 0.08
E51G | 0.279 ± 0.29
A6L | 1.45 ± 0.73
Q69T | -0.236 ± 0.32
A271N | 1.11 ± 0.13
G313C | 1.51 ± 0.28
L516V | 0.832 ± 0.27
E137I | 0.97 ± 0.44
H512R | 0.445 ± 0.22

Variant | AIRE transcriptional activation functional score
G242T | -0.775 ± 0.4
Q57C | -0.141 ± 0.37
C337K | 1.28 ± 0.17
F215T | -0.146 ± 0.21
P254A | 0.885 ± 0.26
L341H | 0.986 ± 0.11
T183H | 0.652 ± 0.16
R15W | 0.0452 ± 0.059
P125A | 1.25 ± 0.44
T463A | 0.614 ± 0.19
T463K | 0.983 ± 0.24
V38T | 0.604 ± 0.24
A482E | 1.28 ± 0.092
P407I | 1.43 ± 0.25
R127N | 1.09 ± 0.27
R127I | 0.611 ± 0.18
A489I | 0.859 ± 0.35
S476W | 1.09 ± 0.037
L418R | 0.67 ± 0.17
K133V | -0.175 ± 0.33
K133I | -0.178 ± 0.14
V443S | 0.937 ± 0.33
Q358L | 1.14 ± 0.12
